Data taken from paper PMC9396614.

Target: Arctic mutant (E22G) amyloid-β 1-42 peptide (human)

recombinant human Bri2 BRICHOS domain, monomer (domain or fragment)
reduction of the nucleation units generated during Aβ42^arc fibrillization, calculated from the fitted ThT kinetics, with monomeric rh Bri2 BRICHOS up to an equal ratio: 80%
